Experimental data as given in patent publication US20220364142.
Residue numbers refer to the chain shown, from its start. In names and notes the source's numbering stands.

T1: Consensus peptide P2R (EVRALEEA) (not fully specified)
T1 chain: EVRALEEA

T2: Consensus peptide P3GP1'V (EGKAVLEA) (not fully specified)
T2 chain: EGKAVLEA

T3: Consensus peptide P4'A (EVKALEEA) (not fully specified)
T3 chain: EVKALEEA

T4: Consensus peptide P4'P (EVKALEEP) (not fully specified)
T4 chain: EVKALEEP

T5: DABCYL-TPLKSPPPSPR-EDANS (Calpain Substrate III; Calbiochem)
T5 chain: TPLKSPPPSPR

T6: PR1476 peptide
T6 chain: RQNRGGGCINH

T7: PR1478 peptide
T7 chain: WRQNRGGGCINH

B1: CAPN5-G267S protease core domain (protein)
chain: MFSCVKPYEDQNYSALRRDCRRRKVLFEDPLFPATDDSLYYKGTPGPAVRWKRPKGICEDPRLFVDGISSHDLHQGQVGNCWFVAACSSLASRESLWQKVIPDWKEQEWDPEKPNAYAGIFHFHFWRFGEWVDVVIDDRLPTVNNQLIYCHSNSRNEFWCALVEKAYAKLAGCYQALDGGNTADALVDFTGGVSEPIDLTEGDFANDETKRNQLFERMLKVHSRGGLISASIKAVTAADMEARLACGLVKGHAYAVTDVRKVRLGHSLLAFFKSEKLDMIRLRNPWGEREWNGPWSDTSEEWQKVSKSEREKMGVTVQDDGEFWMTFEDVCRYFTDIIKCRVI
B2: Calpain-5 protease core domain (CAPN5-PC) (protein)
chain: B1 chain with S267G

Tests used:
[1] = molecular target: T1, Consensus peptide P2R (EVRALEEA)
[2] = molecular target: T2, Consensus peptide P3GP1'V (EGKAVLEA)
[3] = molecular target: T3, Consensus peptide P4'A (EVKALEEA)
[4] = molecular target: T4, Consensus peptide P4'P (EVKALEEP)
[5] = molecular target: T5, DABCYL-TPLKSPPPSPR-EDANS (Calpain …)
PR1476 peptide = molecular target: T6, PR1476 peptide
PR1478 peptide = molecular target: T7, PR1478 peptide

Row | Protein | catalytic efficiency (kcat/Km) [1] [vs. 7 M^-1s^-1] | hydrolysis of consensus FRET peptide [1] | substrate turnover (kcat) [1] | hydrolysis of consensus FRET peptide [2] | hydrolysis of consensus FRET peptide [3] | hydrolysis of consensus FRET peptide [4] | hydrolysis of FRET substrate (EDANS signal) [5] | catalytic efficiency (kcat/Km) (PR1476 peptide) [vs. 7 M^-1s^-1] | proteolytic cleavage of FRET peptide substrate (EDANS fluorescence) (PR1476 peptide) | proteolytic cleavage of FRET peptide substrate (EDANS fluorescence) (PR1478 peptide) | substrate quality compared with PR1476 (PR1478 peptide)
1 | B1 | 11 | These substrates were hydrolyzed by 1.6 µM CAPN5-PC p.G267S in the presence of 10 mM Ca^2+ | The observed substrate turnover (kcat) of these consensus peptides indicated that peptide P2R is preferred by CAPN5-PC and suggests a preference for arginine in the P2 subsite | These substrates were hydrolyzed by 1.6 µM CAPN5-PC p.G267S in the presence of 10 mM Ca^2+ | These substrates were hydrolyzed by 1.6 µM CAPN5-PC p.G267S in the presence of 10 mM Ca^2+ | These substrates were hydrolyzed by 1.6 µM CAPN5-PC p.G267S in the presence of 10 mM Ca^2+ | DABCYL-TPLKSPPPSPR (SEQ ID NO:3)-EDANS (Calpain Substrate III; Calbiochem; 40 µM) hydrolysis by 50 nM CAPN5-G267S protease core domain | – | – | – | –
2 | B2 | – | – | – | – | – | – | – | 11 | PR1476 displays activity in a CAPN5 dose-dependent manner | PR1478 also displays activity in a CAPN5 dose-dependent manner | a tryptophan was added to the N-terminus of PR1476, which makes PR1478 a better substrate for CAPN5
